From paper PMC3883677, “The Quaternary Structure of the Recombinant Bovine Odorant-Binding Protein Is Modulated by Chemical Denaturants” (PLoS ONE, 2014)

Biological target: the molecule itself
Assay: SEC; Superdex-75 PC 3.2/30, calibrated with mass standards; 20 mM Na-phosphate pH 7.8, no GdnHCl; protein 0.1-0.2 mg/ml; monomer to dimer

B1: recombinant bovine odorant-binding protein (natural protein)
chain: AQEEEAEQNLSELSGPWRTVYIGSTNPEKIQENGPFRTYFRELVFDDEKGTVDFYFSVKRDGKWKNVHVKATKQDDGTYVADYEGQNVFKIVSLSRTHLVAHNINVDKHGQTTELTELFVKLNVEDEDLEKFWKLTEDKGIDKKNVVNFLENEDHPHPE
notes: PDB 1OBP is the cited crystal structure of the native tissue-extracted bOBP dimer (domain-swapped); also called bOBP; recombinant bOBP; source: E. coli BL21(DE3), plasmid pT7-7-bOBP, purified (Ni-agarose, HisGraviTrap)
- stoichiometry N: 2
